This note sets out measurements from patent US20110097317A1.

The target of the experiment is thioredoxin (TRX), endogenous in bovine aortic endothelial cells (BAEC) (bovine) (UniProt O97680). Description: cell-based or functional assay.
Chain of UniProt O97680 (O97680 2-105 limits assumed): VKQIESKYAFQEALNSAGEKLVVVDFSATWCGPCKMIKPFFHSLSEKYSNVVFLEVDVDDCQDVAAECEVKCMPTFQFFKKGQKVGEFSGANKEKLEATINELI

In turn, “Thioredoxin interacting protein (TXNIP) over-expressed from pcDNA3.1-TXNIP in BAEC” came in with a TNF-mediated activation of JNK (phospho-specific immunoblot) in BAEC over-expressing TXNIP of 33% and a TNF-mediated activation of p38 (phospho-specific immunoblot) in BAEC over-expressing TXNIP of 23%.
